Data taken from patent publication WO2019030706A1 (dated 2019).
One block for each binder: values may come before it.

Key:
[1] = target: mature human thrombin (human, UniProt P00734 314-363; P00734 364-622); assay: estimate from the rate of S2238 hydrolysis by thrombin
[2] = target: T1, prothrombin (human, UniProt P00734 44-622); assay: pull-down with IgA binding lectin-agarose, supernatant on SDS-PAGE
[3] = target: T1, prothrombin; assay: ForteBio Octet, immobilized IgG

Kd [1]: ~12 nM | binding result [2]: no binding
B1: wild-type anti-exosite 1 IgA antibody (antibody, V domains shown)
VH: QVQLIQSGSAVKKPGASVRVSCKVSGYTLTEAAIHWVRQAPGKGLEWMGGLDPQDGETVYAQQFKGRVTMTEDRSTDTAYMEVNNLRSEDTATYYCTTGDFSEFEPFSMDYFHFWGQGTVVTVAS
VL: EIVLTQSPATLSLSPGERATLSCRASQNVSSFLAWYQHKPGQAPRLLIYDASSRATDIPIRFSGSGSGTDFTLTISGLEPEDFAVYYCQQRRSWPPLTFGGGTKVEIKR
notes: also called anti-thrombin IgA; anti-IIa IgA

binding result [3]: no binding (tested: 500nM)
B2: synthetic anti-exosite 1 IgG antibody (antibody, V domains shown)
VH: B1 VH
VL: B1 VL
notes: also called synthetic IgG; anti-exosite IgG antibody
